Measurements taken from PMC5263102.

Target: chimeric FcεRI (human α, rat β/γ) on hRBL^rαKO cells (human | rat (endogenous in RBL-2H3)) (UniProt P12319)
Assay: flow cytometry on cells

UniProt P12319, sequence (P12319 26-257, change not shown, chain 1 of 3): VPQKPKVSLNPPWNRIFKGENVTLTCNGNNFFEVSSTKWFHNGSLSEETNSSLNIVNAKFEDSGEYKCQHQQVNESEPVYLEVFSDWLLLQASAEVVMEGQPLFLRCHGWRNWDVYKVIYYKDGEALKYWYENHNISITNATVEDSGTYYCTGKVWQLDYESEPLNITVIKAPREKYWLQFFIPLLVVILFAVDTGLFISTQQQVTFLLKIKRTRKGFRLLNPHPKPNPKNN
UniProt P12319, sequence (P13386 whole entry, change not shown, chain 2 of 3, further chain): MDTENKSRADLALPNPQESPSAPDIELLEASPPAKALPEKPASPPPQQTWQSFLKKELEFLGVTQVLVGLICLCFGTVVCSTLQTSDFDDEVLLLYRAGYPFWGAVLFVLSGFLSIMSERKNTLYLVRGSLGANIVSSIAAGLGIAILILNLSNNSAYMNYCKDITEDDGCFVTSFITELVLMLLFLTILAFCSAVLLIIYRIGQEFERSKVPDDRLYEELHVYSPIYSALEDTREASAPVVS
UniProt P12319, sequence (P20411 19-86, change not shown, chain 3 of 3, further chain): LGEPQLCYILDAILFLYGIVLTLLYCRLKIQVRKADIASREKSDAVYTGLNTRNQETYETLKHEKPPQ

% Receptor Occupied at 3.75 ng/ml IgE: 0.16% | % Receptor Occupied at 7.5 ng/ml IgE: 0.26% | % Receptor Occupied at 15 ng/ml IgE: 0.44% | % Receptor Occupied at 30 ng/ml IgE: 1.1% | % Receptor Occupied at 60 ng/ml IgE: 1.89% | % Receptor Occupied at 120 ng/ml IgE: 4% | % Receptor Occupied at 1000 ng/ml IgE: 28% | % Receptor Occupied at 4000 ng/ml IgE: 60% | % Receptor Occupied at 8000 ng/ml IgE: 78% | % Receptor Occupied at 10000 ng/ml IgE: 83% | % Receptor Occupied at 15000 ng/ml IgE: 93% | % Receptor Occupied at 20000 ng/ml IgE: 100% | koff: 1.53e-05 s⁻¹ | kon: 6230 M⁻¹ s⁻¹
Substance: human IgE, Alexa 488-conjugated (hIgE^Alexa-488) (antibody)
